In paper PMC6168491, “Sin3A recruits Tet1 to the PAH1 domain via a highly conserved Sin3-Interaction Domain” (Scientific Reports, 2018):
Where two headings read alike, the source gives them in different places.

T1: PAH1(115–212) for NMR (UniProt Q60520 115-212)
T1 construct: Sin3A PAH1 domain, residues 115–212; Same construct as m29; also called apo-PAH1; 15N-labelled PAH1(115–212); source: 15N labelled in M9 minimal media
T1 sequence (looked up): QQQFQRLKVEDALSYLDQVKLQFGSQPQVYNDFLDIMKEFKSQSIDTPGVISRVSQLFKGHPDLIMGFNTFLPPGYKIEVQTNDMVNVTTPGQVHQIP


Biological target: T1, PAH1(115–212) for NMR
Test: NMR titration; 15N-HSQC of 150 µM 15N-labelled PAH1(115–212) with 150 µM unlabelled Tet1(878–911) (1:1; also sub-stoichiometric ratio); 303 K; 20 mM Tris-HCl pH 7.4, 50 mM NaCl, 1 mM DTT; average minimal shift analysis

| Δδmin (average minimal shift, relative to the WT complex) (both partners purified) | Molecule | other results |
| --- | --- | --- |
|  | Tet1-SID(878–911) L897A for NMR (from UniProt Q3URK3 861-894) (domain or fragment) | Δδmin (average minimal shift, relative to the WT complex): 0.118; Δδmin (average minimal shift, relative to the apo-protein): 0.061 |
|  | LSLMKDRRLTLEQVVAIEALTQLSEAPSESSSPS (domain or fragment, UniProt Q3URK3 861-894, looked up, Same construct as m24; also called WT) [Tet1-SID(878–911) for NMR] | Kd (both partners purified): < 100 nM |
| 0.026 | LSLMKDRRLTLEQVVAIEALAQLSEAPSESSSPS (domain or fragment, UniProt Q3URK3 861-894, looked up, Tag removal for NMR was conducted as needed) [Tet1-SID(878–911) T898A for NMR] |  |
| 0.038 | LSLMKDRRLTLEQVVAIEALEQLSEAPSESSSPS (domain or fragment, UniProt Q3URK3 861-894, looked up, Tag removal for NMR was conducted as needed) [Tet1-SID(878–911) T898E for NMR] |  |
| 0.061 | LSLMKDRRLTLEQVVAAEALTQLSEAPSESSSPS (domain or fragment, UniProt Q3URK3 861-894, looked up, Tag removal for NMR was conducted as needed) [Tet1-SID(878–911) I894A for NMR] |  |
| 0.074 | LSLMKDRRLTLEQVVAIEALTQASEAPSESSSPS (domain or fragment, UniProt Q3URK3 861-894, looked up, Tag removal for NMR was conducted as needed) [Tet1-SID(878–911) L900A for NMR] |  |
